Earlier results in article PMC10385628.

Target: neuropilin-1 (Homo sapiens) (UniProt O14786)
Chain of UniProt O14786 (O14786 22-856): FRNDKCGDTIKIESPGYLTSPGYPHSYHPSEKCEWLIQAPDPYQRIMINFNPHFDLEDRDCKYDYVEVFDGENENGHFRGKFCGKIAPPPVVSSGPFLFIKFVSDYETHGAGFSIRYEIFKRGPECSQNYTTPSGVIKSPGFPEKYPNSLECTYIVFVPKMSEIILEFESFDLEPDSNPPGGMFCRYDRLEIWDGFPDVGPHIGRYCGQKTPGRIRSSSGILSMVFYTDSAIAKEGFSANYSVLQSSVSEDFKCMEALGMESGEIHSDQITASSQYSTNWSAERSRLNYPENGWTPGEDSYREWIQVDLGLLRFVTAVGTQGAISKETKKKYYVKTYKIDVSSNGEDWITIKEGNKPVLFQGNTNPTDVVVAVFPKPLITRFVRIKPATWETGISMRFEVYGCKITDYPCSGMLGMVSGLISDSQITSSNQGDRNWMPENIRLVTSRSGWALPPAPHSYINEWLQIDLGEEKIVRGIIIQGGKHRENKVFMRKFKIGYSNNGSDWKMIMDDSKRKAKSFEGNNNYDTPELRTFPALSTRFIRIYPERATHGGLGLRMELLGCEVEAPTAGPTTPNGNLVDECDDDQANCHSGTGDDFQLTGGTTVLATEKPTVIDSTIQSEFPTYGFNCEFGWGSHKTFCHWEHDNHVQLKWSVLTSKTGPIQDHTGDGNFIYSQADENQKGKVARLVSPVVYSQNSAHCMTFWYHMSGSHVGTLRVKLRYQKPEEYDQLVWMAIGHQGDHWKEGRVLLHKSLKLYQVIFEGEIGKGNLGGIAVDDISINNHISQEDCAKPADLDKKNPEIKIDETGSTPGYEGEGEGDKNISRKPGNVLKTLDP

## KDKPPR peptide
  Kd: 500 nM
